Experimental data reported in US20090148905A1 (published 2009).
Each block holds one binder with its values, some of them ahead of it.

Tests used:
human IL-13 = biological target: T1, human IL-13 (human, UniProt P35225 35-146)
T1 construct: E. coli-expressed, made and purified at GSK; also called rhIL-13; recombinant E. coli-expressed human IL-13

human IL-4 = biological target: T2, human IL-4 (human, UniProt P05112 25-153); experiment: Biacore
T2 construct: E. coli-expressed, made and purified at GSK; also called rhIL-4; recombinant E. coli-expressed human IL-4
T2 sequence: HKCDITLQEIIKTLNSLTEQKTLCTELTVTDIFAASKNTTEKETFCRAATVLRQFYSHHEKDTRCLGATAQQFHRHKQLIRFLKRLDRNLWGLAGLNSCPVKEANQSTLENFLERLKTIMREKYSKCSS

Kd (human IL-13): 0.3 nM
B1: Anti-human IL-13 monoclonal antibody (also known as 586) (antibody, human IgG1, kappa)
heavy: not shown
light: DIVMTQSPLSLPVTPGEPASISCRSSQNIVHINGNTYLEWYLQKPGQSPRLLIYKISDRFSGVPDRFSGSGSGTDFTLKISRVEADDVGIYYCFQGSHVPWTFGQGTKLEIKRTVAAPSVFIFPPSDEQLKSGTASVVCLLNNFYPREAKVQWKVDNALQSGNSQESVTEQDSKDSTYSLSSTLTLSKADYEKHKVYACEVTHQGLSSPVTKSFNRGEC
notes: humanised, human IgG1/kappa; also called Anti-human IL-13 mAb; anti-IL13 mAb

fold less potent than Pascolizumab (human IL-4): ~2 fold
B2: PascoL-EPKSC-474 (bispecific antibody, human IgG1, kappa)
heavy: not shown
light: DIVLTQSPSSLSASVGDRVTITCKASQSVDYDGDSYMNWYQQKPGKAPKLLIYAASNLESGIPSRFSGSGSGTDFTFTISSLQPEDIATYYCQQSNEDPPTFGQGTKVEIKRTVAAPSVFIFPPSDEQLKSGTASVVCLLNNFYPREAKVQWKVDNALQSGNSQESVTEQDSKDSTYSLSSTLTLSKADYEKHKVYACEVTHQGLSSPVTKSFNRGECEPKSCDKTHTCPPCPGSGVQLLESGGGLVQPGGSLRLSCAASGFTFAWYDMGWVRQAPGKGLEWVSSIDWHGEVTYYADSVKGRFTISRDNSKNTLYLQMNSLRAEDTAVYYCATAEDEPGYDYWGQGTLVTVSS
